Reference: patent publication EP4786497A1 (Astellas Pharma Inc., dated 2026)
Changes are numbered by the printed parent chain.

B1: tA3-20 (antibody, human IgG1, lambda, L234A L235A)
heavy: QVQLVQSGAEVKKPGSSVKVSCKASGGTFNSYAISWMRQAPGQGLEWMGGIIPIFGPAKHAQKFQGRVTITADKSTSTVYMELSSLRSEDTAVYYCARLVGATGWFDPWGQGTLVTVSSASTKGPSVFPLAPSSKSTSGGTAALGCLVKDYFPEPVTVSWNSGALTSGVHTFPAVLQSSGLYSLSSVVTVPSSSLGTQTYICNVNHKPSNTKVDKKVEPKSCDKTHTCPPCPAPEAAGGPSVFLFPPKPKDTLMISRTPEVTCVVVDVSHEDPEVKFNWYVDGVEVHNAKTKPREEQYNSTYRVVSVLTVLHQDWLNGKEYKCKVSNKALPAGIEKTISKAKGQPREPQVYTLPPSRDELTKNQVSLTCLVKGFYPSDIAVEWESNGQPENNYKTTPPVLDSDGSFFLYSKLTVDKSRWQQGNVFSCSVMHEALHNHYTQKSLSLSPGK
light: FMLTQPHSVSESPGKTVNISCTRSSGSIATNYVQWYQQRPGSSPTTVIYEDNQRPSGVPDRFSGSIDSSSNSASLTISGLKTEDEAVYHCQSYDSSNVVFGGGTKLTVLGQPKAAPSVTLFPPSSEELQANKATLVCLISDFYPGAVTVAWKADSSPVKAGVETTTPSKQSNNKYAASSYLSLTPEQWKSHRSYSCQVTHEGSTVEKTVAPTECS
notes: human lambda constant region; also called fully human anti-MerTK antibody; anti-MerTK agonist antibody tA3-20
B2: tA3-20.2 (antibody, human IgG1, lambda, L234A L235A)
heavy: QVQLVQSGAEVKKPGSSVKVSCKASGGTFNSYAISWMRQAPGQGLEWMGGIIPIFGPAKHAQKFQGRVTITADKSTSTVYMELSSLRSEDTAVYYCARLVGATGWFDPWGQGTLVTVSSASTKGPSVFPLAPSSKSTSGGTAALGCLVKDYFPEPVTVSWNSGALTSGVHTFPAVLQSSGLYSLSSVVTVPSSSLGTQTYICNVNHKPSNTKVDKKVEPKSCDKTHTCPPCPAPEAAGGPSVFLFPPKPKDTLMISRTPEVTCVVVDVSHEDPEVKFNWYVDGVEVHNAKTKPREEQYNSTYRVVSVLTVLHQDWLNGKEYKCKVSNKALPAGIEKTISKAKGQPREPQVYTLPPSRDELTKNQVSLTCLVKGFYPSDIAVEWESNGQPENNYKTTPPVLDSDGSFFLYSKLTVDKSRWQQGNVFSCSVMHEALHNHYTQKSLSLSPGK
light: B1 light with N18S
B3: tA3-20.1 (antibody, human IgG1, lambda, L234A L235A)
heavy: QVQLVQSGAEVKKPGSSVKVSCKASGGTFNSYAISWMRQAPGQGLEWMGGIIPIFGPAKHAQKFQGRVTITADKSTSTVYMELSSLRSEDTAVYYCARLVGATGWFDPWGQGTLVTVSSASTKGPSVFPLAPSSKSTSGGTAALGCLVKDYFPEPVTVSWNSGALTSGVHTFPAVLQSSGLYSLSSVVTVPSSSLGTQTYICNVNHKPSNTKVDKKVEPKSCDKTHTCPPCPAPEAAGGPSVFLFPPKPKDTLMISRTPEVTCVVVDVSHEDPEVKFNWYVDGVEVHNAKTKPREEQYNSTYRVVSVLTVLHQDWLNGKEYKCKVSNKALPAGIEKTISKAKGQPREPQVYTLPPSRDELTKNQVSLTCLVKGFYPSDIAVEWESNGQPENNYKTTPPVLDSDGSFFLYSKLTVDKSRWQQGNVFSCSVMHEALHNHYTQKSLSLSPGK
light: B1 light with N18T
B4: tA3-20.3 (antibody, human IgG1, lambda, L234A L235A)
heavy: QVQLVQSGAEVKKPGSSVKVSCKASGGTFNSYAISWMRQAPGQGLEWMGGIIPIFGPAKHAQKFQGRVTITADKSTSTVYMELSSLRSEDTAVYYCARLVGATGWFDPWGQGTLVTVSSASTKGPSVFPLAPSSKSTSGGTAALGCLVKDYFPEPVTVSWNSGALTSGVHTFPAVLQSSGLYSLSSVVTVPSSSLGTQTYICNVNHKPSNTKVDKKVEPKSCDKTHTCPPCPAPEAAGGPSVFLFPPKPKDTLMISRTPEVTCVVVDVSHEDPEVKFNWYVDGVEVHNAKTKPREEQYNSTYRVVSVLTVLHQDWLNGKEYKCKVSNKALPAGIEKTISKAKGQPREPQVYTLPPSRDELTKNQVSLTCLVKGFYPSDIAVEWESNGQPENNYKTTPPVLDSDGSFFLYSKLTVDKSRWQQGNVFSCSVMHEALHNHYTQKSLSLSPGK
light: NFMLTQPHSVSESPGKTVNISCTRSSGSIATNYVQWYQQRPGSSPTTVIYEDNQRPSGVPDRFSGSIDSSSNSASLTISGLKTEDEAVYHCQSYDSSNVVFGGGTKLTVLGQPKAAPSVTLFPPSSEELQANKATLVCLISDFYPGAVTVAWKADSSPVKAGVETTTPSKQSNNKYAASSYLSLTPEQWKSHRSYSCQVTHEGSTVEKTVAPTECS
B5: tA3-20.5 (antibody, human IgG1, lambda, L234A L235A)
heavy: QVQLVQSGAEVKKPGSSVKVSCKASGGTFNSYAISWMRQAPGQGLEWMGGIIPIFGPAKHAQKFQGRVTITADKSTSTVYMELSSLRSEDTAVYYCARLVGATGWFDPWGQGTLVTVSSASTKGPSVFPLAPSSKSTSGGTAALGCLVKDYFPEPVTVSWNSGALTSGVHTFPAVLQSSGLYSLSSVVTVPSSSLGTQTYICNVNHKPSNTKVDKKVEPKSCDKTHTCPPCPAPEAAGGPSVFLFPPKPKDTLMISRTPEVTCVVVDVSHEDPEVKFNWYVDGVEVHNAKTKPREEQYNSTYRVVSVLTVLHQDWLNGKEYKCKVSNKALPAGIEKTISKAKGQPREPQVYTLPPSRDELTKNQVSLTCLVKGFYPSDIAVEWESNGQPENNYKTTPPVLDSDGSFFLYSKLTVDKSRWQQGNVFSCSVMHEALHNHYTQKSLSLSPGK
light: B4 light with N19S
B6: tA3-20.4 (antibody, human IgG1, lambda, L234A L235A)
heavy: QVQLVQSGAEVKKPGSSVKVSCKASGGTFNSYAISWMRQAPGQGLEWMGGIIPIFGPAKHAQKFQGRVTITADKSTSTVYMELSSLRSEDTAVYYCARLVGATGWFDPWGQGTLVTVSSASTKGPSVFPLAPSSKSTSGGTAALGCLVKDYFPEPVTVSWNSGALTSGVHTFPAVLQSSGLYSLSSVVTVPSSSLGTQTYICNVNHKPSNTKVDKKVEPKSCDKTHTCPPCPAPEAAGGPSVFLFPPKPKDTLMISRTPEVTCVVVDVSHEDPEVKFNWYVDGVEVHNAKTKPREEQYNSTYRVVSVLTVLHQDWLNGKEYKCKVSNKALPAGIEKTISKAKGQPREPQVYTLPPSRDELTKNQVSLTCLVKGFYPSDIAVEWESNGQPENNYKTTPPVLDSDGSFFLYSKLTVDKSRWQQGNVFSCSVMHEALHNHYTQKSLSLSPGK
light: B4 light with N19T
B7: tA-009 (bispecific antibody, mouse IgG2a)
heavy: QVQLVQSGAEVKKPGSSVKVSCKASGGTFNSYAISWMRQAPGQGLEWMGGIIPIFGPAKHAQKFQGRVTITADKSTSTVYMELSSLRSEDTAVYYCARLVGATGWFDPWGQGTLVTVSSAKTTAPSVYPLAPVCGDTTGSSVTLGCLVKGYFPEPVTLTWNSGSLSSGVHTFPAVLQSDLYTLSSSVTVTSSTWPSQSITCNVAHPASSTKVDKKIEPRGPTIKPCPPCKCPAPNAAGGPSVFIFPPKIKDVLMISLSPIVTCVVVDVSEDDPDVQISWFVNNVEVHTAQTQTHREDYNSTLRVVSALPIQHQDWMSGKEFKCKVNNKDLAAPIERTISKPKGSVRAPQVYVLPPPEKEMTKKQVSLTCLVKDFMPEDIYVEWTNNGKTELNYKNTEPVLKSDGSYFMYSKLTVEKKNWVERNSYSCSVVHEGLHNHHTTKSFSRTPGK
light: NFMLTQPHSVSESPGKTVNISCTRSSGSIATNYVQWYQQRPGSSPTTVIYEDNQRPSGVPDRFSGSIDSSSNSASLTISGLKTEDEAVYHCQSYDSSNVVFGGGTKLTVLGQPKSSPSVTLFPPSSEELETNKATLVCTITDFYPGVVTVDWKVDGTPVTQGMETTQPSKQSNNKYMASSYLTLTARAWERHSSYSCQVTHEGHTVEKSLSRADCS
chain: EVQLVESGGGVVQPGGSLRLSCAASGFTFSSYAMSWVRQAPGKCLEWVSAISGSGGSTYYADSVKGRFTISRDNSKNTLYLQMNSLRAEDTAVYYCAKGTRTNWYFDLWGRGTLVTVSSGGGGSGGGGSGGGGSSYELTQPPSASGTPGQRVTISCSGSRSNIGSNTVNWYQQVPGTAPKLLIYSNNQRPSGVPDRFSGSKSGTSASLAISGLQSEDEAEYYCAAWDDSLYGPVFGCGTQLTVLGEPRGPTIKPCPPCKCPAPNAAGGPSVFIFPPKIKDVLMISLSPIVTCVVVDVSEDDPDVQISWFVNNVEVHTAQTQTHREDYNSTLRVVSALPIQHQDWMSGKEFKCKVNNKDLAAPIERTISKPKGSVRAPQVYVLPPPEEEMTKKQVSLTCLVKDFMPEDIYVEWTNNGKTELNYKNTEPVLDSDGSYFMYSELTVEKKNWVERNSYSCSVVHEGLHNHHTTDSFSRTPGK
notes: also called mouse-type anti-MerTK-anti-TTR bispecific antibody

What was measured:
[1] = biological target: T1, mouse MerTK-human Fc fusion protein (mouse; human, UniProt Q60805 19-497); assay: ELISA, MerTK protein immobilized at 1 µg/mL
T1 construct: range 19-497; Made in ExpiCHO-S cells; also called protein of mouse MerTK fused with human Fc; not shown: human IgG1 Fc as encoded by the pFUSE-hIgG1-Fc1 vector (InvivoGen)
T1 sequence (looked up): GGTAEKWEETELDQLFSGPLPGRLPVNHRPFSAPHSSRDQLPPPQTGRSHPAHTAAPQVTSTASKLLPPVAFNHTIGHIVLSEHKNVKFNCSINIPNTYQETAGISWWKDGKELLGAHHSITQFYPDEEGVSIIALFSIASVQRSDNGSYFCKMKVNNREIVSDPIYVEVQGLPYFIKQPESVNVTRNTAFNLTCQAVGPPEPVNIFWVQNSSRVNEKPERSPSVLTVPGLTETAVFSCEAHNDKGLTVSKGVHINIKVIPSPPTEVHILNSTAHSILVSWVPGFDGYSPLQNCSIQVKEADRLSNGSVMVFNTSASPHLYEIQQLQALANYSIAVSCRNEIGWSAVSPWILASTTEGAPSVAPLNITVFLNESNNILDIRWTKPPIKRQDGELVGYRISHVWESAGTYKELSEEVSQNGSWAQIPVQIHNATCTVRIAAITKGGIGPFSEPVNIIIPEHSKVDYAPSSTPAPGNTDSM

[2] = biological target: T2, human MerTK-human Fc fusion protein (human, UniProt Q12866 21-505); assay: ELISA, MerTK protein immobilized at 1 µg/mL
T2 construct: range 21-505; Made in ExpiCHO-S cells; also called human MerTK-Fc protein; MerTK-Fc fusion protein; not shown: human IgG1 Fc as encoded by the pFUSE-hIgG1-Fc1 vector (InvivoGen)
T2 sequence (looked up): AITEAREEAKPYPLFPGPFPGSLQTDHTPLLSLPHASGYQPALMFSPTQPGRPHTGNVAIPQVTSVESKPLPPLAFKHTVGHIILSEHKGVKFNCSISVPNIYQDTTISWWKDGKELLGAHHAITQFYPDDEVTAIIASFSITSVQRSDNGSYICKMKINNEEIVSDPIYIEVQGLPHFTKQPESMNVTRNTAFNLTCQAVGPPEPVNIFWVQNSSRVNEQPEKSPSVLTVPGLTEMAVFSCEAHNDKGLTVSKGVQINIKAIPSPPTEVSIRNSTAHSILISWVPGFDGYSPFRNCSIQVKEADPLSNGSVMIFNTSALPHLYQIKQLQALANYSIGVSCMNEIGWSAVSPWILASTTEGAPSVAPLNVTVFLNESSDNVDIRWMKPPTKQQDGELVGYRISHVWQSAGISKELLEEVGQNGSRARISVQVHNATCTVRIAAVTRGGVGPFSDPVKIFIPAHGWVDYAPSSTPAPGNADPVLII

human MerTK-His protein [3] = biological target: T3, human MerTK-His protein (human, UniProt Q12866 21-505); assay: ELISA, human MerTK-His immobilized at 1 µg/mL
T3 construct: range 21-505; Made in ExpiCHO-S cells; also called protein of human MerTK fused with His tag
T3 sequence: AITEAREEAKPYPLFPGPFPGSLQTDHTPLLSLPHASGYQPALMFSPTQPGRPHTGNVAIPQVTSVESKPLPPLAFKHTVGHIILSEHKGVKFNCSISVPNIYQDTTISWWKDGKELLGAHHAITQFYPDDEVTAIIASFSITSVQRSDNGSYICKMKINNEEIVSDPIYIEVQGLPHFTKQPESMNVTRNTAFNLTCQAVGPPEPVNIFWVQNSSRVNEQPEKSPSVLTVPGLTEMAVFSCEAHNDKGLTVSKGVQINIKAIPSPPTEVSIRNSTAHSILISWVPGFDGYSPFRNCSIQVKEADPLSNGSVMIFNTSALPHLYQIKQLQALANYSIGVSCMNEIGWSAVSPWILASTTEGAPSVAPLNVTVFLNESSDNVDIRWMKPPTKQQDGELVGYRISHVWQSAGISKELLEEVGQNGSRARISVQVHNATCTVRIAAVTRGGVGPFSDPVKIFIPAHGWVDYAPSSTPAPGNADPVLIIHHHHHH

human MerTK-His protein [4] = biological target: T3, human MerTK-His protein; assay: ELISA, human MerTK-His immobilized, same method
[5] = biological target: misfolding-treated recombinant human TTR V30M protein (human, UniProt P02766 21-147); assay: ELISA, misTTR immobilized at 2 µg/mL
[6] = biological target: T2, human MerTK-human Fc fusion protein; assay: ELISA, human MerTK-Fc immobilized at 1 µg/mL

Binder	binding result (human MerTK-His protein [3])	binding result (human MerTK-His protein [4])	further results
B1	binds	–	binding result [1]: binds; binding result [2]: binds
B2	binds	–	–
B3	binds	–	–
B4	–	binds	–
B5	–	binds	–
B6	–	binds	–
B7	–	–	binding result [5]: binds; binding result [6]: binds
